Blank lines part the entries; values can stand above or below the binder they belong to.
Tests used:
[1] = target: human IL-7Rα expressed on non-T cells (CD3- cells, monocytes) (human) (UniProt P16871); experiment: cell-based or functional assay
[2] = target: T1, hIL-7R (Example 11) (human) (UniProt P16871); experiment: SPR (Biacore), ratio KD of parent 18B1 to KD of variant
T1 sequence: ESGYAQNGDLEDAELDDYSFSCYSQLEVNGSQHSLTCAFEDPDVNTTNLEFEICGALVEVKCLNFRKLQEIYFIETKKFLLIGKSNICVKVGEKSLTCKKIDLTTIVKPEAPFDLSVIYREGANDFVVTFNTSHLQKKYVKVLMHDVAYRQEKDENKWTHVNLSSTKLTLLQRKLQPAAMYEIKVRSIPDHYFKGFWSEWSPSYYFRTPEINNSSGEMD

[3] = target: T1, hIL-7R (Example 11) (human); experiment: NGS enrichment ratio of the mutation in the scFv library selected at 0.2 nM hIL-7R
[4] = target: T1, hIL-7R (Example 11) (human); experiment: SPR at 37C
[5] = target: T1, hIL-7R (Example 11) (human); experiment: NGS enrichment ratio, parental scFv, reference of the normalisation [cont'd]

B2: 18B1 LC Y94A (antibody, human IgG1, kappa, V domains shown)
VH: EVQLVESGGGLVQPGRSLRLSCAASGFTFDDHAMHWVRQAPGKGLEWVSGISWNSRGIGYADSVKGRFTIFRDNAKNSLYLQMNSLRAEDTALYYCAKDEYSRGYYVLDVWGQGTTVTVSS
VL: AIQLTQSPSSLSASVGDRVTITCRASQGISSALAWYQQKPGKAPKLLIYDASSLESGVPSRFSGSGSGTDFTLTISSLQPEDFATYYCQQFNSAPLWITFGQGTRLEIKR
- KD Relative to 18B1 [2]: 0.01
- 0.2 nM NGS [3]: 0.01

B3: 18B1 LC L95aA (antibody, V domains shown)
VH: EVQLVESGGGLVQPGRSLRLSCAASGFTFDDHAMHWVRQAPGKGLEWVSGISWNSRGIGYADSVKGRFTIFRDNAKNSLYLQMNSLRAEDTALYYCAKDEYSRGYYVLDVWGQGTTVTVSS
VL: AIQLTQSPSSLSASVGDRVTITCRASQGISSALAWYQQKPGKAPKLLIYDASSLESGVPSRFSGSGSGTDFTLTISSLQPEDFATYYCQQFNSYPAWITFGQGTRLEIKR
- KD Relative to 18B1 [2]: 0.01
- 0.2 nM NGS [3]: 0.01

More lines, now with the values ahead:

- MCP1 Production IC50, purified monocytes, TSLP [1]: 24 nM
B1: Anti-IL-7R Antibody (Antibody A) (antibody, human IgG1, kappa, V domains shown)
VH: EVQLVESGGGLVQPGRSLRLSCAASGFTFDDHAMHWVRQAPGKGLEWVSGISWNSRGIGYADSVKGRFTIFRDNAKNSLYLQMNSLRAEDTALYYCAKDEYSRGYYVLDVWGQGTTVTVSS
VL: AIQLTQSPSSLSASVGDRVTITCRASQGISSALAWYQQKPGKAPKLLIYDASSLESGVPSRFSGSGSGTDFTLTISSLQPEDFATYYCQQFNSYPLWITFGQGTRLEIKR

- Kd [4]: 1.3 nM
- koff [4]: 0.000403 s⁻¹
- kon [4]: 311000 M⁻¹ s⁻¹
- 0.2 nM NGS [5]: 1
B4: 18B1 scFv (scFv, V domains shown, not shown: small tags and cut ends)
VH: EVQLVESGGGLVQPGRSLRLSCAASGFTFDDHAMHWVRQAPGKGLEWVSGISWNSRGIGYADSVKGRFTIFRDNAKNSLYLQMNSLRAEDTALYYCAKDEYSRGYYVLDVWGQGTTVTVSS
VL: AIQLTQSPSSLSASVGDRVTITCRASQGISSALAWYQQKPGKAPKLLIYDASSLESGVPSRFSGSGSGTDFTLTISSLQPEDFATYYCQQFNSYPLWITFGQGTRLEIK
modifications: linker; domain order unknown
